Data published in patent US20220026447A1 (SOONCHUNHYANG UNIVERSITY INDUSTRY ACADEMY COOPERATION …, published 2022).

What was measured:
[1] = molecular target: T1, human FUS (fused in sarcoma) protein
T1 chain: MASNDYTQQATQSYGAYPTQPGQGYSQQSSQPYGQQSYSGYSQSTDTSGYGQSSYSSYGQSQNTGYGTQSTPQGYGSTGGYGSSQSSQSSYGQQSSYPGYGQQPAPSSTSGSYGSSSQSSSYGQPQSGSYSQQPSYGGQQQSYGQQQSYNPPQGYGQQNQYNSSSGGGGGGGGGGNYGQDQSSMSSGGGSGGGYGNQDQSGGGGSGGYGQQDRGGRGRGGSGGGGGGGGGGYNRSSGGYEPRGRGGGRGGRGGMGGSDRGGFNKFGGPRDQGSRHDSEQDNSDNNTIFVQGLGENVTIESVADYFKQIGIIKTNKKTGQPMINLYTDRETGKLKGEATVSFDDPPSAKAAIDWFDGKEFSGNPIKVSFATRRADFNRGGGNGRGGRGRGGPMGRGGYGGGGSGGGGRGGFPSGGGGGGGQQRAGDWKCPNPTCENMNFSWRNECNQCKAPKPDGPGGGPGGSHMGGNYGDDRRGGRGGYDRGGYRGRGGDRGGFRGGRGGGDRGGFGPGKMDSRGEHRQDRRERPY

[2] = molecular target: T2, human FUS (fused in sarcoma) protein (human, UniProt P35637 1-526); assay: immunofluorescence co-localisation in Drosophila brain neurons (anti-GstO2 / anti-FUS)
T2 construct: Human FUS was expressed in Drosophila neurons with the elav-Gal4 driver and seen as cytoplasmic aggregates; also called human wild-type FUS; FUS aggregate
T2 sequence: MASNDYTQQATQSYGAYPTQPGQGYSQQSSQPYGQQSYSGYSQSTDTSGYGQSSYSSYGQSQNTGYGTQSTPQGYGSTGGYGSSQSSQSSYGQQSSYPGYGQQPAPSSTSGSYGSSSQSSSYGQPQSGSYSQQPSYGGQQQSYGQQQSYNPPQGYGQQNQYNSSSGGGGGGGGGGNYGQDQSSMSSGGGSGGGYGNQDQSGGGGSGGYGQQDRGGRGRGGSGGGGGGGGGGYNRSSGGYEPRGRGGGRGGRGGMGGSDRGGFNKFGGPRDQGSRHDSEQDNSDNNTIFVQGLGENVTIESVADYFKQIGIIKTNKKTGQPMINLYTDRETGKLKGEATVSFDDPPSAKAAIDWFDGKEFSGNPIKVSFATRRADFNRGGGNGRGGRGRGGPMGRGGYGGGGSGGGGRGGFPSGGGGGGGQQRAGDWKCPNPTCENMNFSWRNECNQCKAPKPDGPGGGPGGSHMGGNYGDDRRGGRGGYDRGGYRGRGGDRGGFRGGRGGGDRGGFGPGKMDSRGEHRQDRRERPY

B1: Drosophila omega class glutathione transferase 2 (GstO2) (enzyme)
chain: MALPQKHFKRGSTKPELPEDGVPRFFSMAFCPFSHRVRLMLAAKHIEHHKIYVDLIEKPEWYKDFSPLGKVPALQLTGVKDQPTLVESLIIAEYLDQQYPQTRLFPTDPLQKALDKILIERFAPVVSAIYPVLTCNPNAPKDAIPNFENALDVFEVELGKRGTPYFAGQHIGIVDYMIWPWFERFPSMKINTEQKYELDTKRFEKLLKWRDLMTQDEVVQKTALDVQLHAEFQKSKTLGNPQYDIAFKGTP
notes: also called endogenous GstO2
FUS glutathionylation and FUS aggregate formation (double immunofluorescence of fly brain tissue, anti-FUS / anti-GSH) [1]: GstO2 coexpression inhibits an increase in formation of a FUS aggregate, and reduces FUS glutathionylation | binding result [2]: binds
